For 5 molecules, OD450 results are on record in US20250250357A1 (NANJING ZAIMING PHARMACEUTICAL, published 2025).

Substitutions are numbered along the chain they refer to.

To fix the notation:
T1: human MSLN-R1-his protein (human, UniProt Q13421 296-390)
T1 construct: Region 1 of human mesothelin, made in HEK293E cells, His-tagged; also called human MSLN-R1 protein; hMSLN-R1-his; not shown: His tag
T1 chain: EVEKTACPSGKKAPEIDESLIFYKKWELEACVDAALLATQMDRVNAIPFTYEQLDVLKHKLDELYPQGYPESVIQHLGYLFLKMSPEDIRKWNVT

B1: S009-F8-27.1 (antibody, human IgG1, kappa, V domains shown)
VH: EVQLVESGGGLVKPGGSLKLSCAASGFTFSSYAMSWVRQTPEKRLEWVATISDGGNYTYYPDNVKGRFTISRDNAKNNLYLQMSHLKSEDTAMYYCAGDRGYPYAMDSWGQGTSVTVSS
VL: NIMMTQSPSSLAVSAGEKVTMSCKSSQSVLYSSNQKNYLAWYQQKPGQSPKLLIYWASTRESGVPDRFTGSGSGTDFTLTISNVHAEDLAVYYCHQYLSSLTFGAGTKLELKR
B2: S009-F8-28.23 (antibody, human IgG1, kappa, V domains shown)
VH: B1 VH with G10D, N56S, K65E, P103S, M106L, S108Y
VL: B1 VL with N83S, H85Q
B3: S009-F8-24.14 (antibody, human IgG1, kappa, V domains shown)
VH: EFQLQQSGPELVKPGASVKISCKASGYSFTDYNMNWVKLSNGKSLEWIGVIIPNYGTSSYNQKFKGKATLTVDQSSSTAYMQLNSLTSEDSAVYYCARWDNYYGSSLDYWGQGTTLTVSS
VL: DIVMTQSQKFMSTTVGDRVSITCKASQNVGTAVAWYQQKPGQSPKLLIYSASNRYTGVPDRFTGSGSGTDFILTISNMQSEDLADYFCQQYSSYPLTFGAGTKLELKR
B4: S009-F8-19.21 (antibody, human IgG1, kappa, V domains shown)
VH: EFQLQQSGPELVKPGASVKISCKTSGYSFTDYNMNWVKQSNGKSLEWIGVINPNYGTTGYNQKFKGKATLTVDQSSSTAYMQLNSLTSEDSAVYYCARGGYDGEAMDYWGHGTSVTVSS
VL: QIVLTQSPAIMSASPGEKVTMTCSASSSVNYMHWYQQKSGTSPKRWIYDTSKLASGVPARFSGSGSGTSYSLTISSMEAEDAATYYCQQWSSYPPTFGGGTKLEIKR
B5: S009-F8-22.23 (antibody, human IgG1, kappa, V domains shown)
VH: QVQLKQSGPGLVQPSQSLSITCTVSGFSLFSYGVHWVRQSPGKGLEWLGVIWSGGSTDYNAAFISRLSISKDNSKSQVFFKMNSLQADDTAMYYCARNGGSMITTLYYAMDYWGQGTSVTVSS
VL: DVVMTQTPLSLPVSLGDQASISCRSSQSLVHSYGNTYLHWYLQKPGQSPKLLIYKVSNRFSGVPDRFSGSGSGTDFTLKISRVEAEDLGVYFCSQSTHIPFTFGGGTKLEIKR

T2 sequence (Q13421 495-606): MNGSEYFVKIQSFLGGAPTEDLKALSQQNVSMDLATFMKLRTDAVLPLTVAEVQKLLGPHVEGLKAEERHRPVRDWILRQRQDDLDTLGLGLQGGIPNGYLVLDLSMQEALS

One experiment addresses T2, human MSLN-R3-his protein (human, UniProt Q13421 487-598).
T2 construct: Region 3 of human mesothelin, made in HEK293E cells, His-tagged; also called human MSLN-R3 protein; hMSLN-R3-his; not shown: His tag
Description: ELISA on coated MSLN-R3; antibody 0.001 nM. On the technique in general: An ELISA detects its analyte on a solid surface through an enzyme-linked reagent.
B1 had an OD450 of 0.05 OD450.
The same measure, in the same setting: then B2, with 0.04 OD450; and B3, with 0.04 OD450.
For the molecule B4, the OD450 came to 0.04 OD450.
Take B5: the OD450 was determined as 0.04 OD450.

In another experiment the target is T3, human MSLN-R2-his protein (human, UniProt Q13421 391-486).
T3 construct: Region 2 of human mesothelin, made in HEK293E cells, His-tagged; also called human MSLN-R2 protein; hMSLN-R2-his; not shown: His tag
T3 sequence (Q13421 other isoform, or with tags, fused parts or gaps): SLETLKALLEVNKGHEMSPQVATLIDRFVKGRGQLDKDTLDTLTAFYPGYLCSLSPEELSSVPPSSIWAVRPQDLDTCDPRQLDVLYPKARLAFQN
Description: ELISA on coated MSLN-R2; antibody 100 nM.
B1: the OD450 is 0.05 OD450.
Same read-out and setting: in the case of B2 it was 0.05 OD450; in that of B3, 0.05 OD450; in that of B4, 0.06 OD450.
Still for that read-out and setting: in the case of B5 it was 0.17 OD450.

The next experiment addresses T3, human MSLN-R2-his protein. The experiment in a line: ELISA on coated MSLN-R2; antibody 10 nM.
With B1, the OD450 turned out to be 0.05 OD450.
B2 came in with an OD450 of 0.04 OD450.
The same measure, in the same setting: then B3, with 0.04 OD450.
Regarding B4, the OD450 worked out at 0.06 OD450.
On the same count and under the same terms, then B5, with 0.11 OD450.

The next experiment has as its target T1, human MSLN-R1-his protein. Description: ELISA on coated MSLN-R1; no antibody (blank).
Description: (§1) The plate was sealed with a plastic film and incubated at 4° C. overnight. The next day, the plate was washed twice with PBST, and a blocking buffer [PBS+2% (w/w) BSA] was added for blocking at room temperature for 2 h. The blocking buffer was discarded, and a chimeric antibody or negative control antibody serially diluted from 100 nM was added at 50 μL/well. After incubation at 37° C. for 2 h, the plate was washed 3 times with PBST. […] After incubation at 37° C. for 2 h, the plate was washed 5 times with PBST. A TMB substrate was added at 50 μL/well for incubation at room temperature for 5-10 min, and then a stop solution (1.0 N HCl) was added at 50 μL/well.
Consider B1, for which the OD450 amounted to 0.05 OD450.
Regarding B2, the OD450 came out at 0.04 OD450.
Still for that read-out and setting: then B3, with 0.04 OD450; and B4, with 0.05 OD450; and B5, with 0.04 OD450.

The next experiment has as its target T2, human MSLN-R3-his protein. Description: ELISA on coated MSLN-R3; antibody 0.0001 nM.
Description: as §1
As to B1, the OD450 came to 0.04 OD450.
B2 showed an OD450 of 0.04 OD450.
The same measure, in the same setting: in the case of B3 it was 0.04 OD450; in that of B4, 0.04 OD450.
In turn, B5 displayed an OD450 of 0.04 OD450.

The next experiment deals with T3, human MSLN-R2-his protein. The experiment in a line: ELISA on coated MSLN-R2; antibody 0.01 nM.
Description: as §1
B1 had an OD450 of 0.04 OD450.
In the case of B2, the OD450 was 0.04 OD450.
Still for that read-out and setting: in the case of B3 it was 0.04 OD450; in that of B4, 0.04 OD450; in that of B5, 0.04 OD450.

In the next experiment the target is T1, human MSLN-R1-his protein. The experiment in a line: ELISA on coated MSLN-R1; antibody 10 nM.
Description: as §1
Turning to B1, the OD450 was 0.08 OD450.
B2 yielded an OD450 of 0.04 OD450.
As to B3, the OD450 amounted to 2.24 OD450.
Same read-out and setting: then B4, with 2.11 OD450.
In turn, B5 had an OD450 of 2.51 OD450.

Another experiment deals with T3, human MSLN-R2-his protein. Description: ELISA on coated MSLN-R2; no antibody (blank).
Description: as §1
In turn, B1 gave an OD450 of 0.05 OD450.
Turning to B2, the OD450 was 0.04 OD450.
Still for that read-out and setting: then B3, with 0.04 OD450; and B4, with 0.05 OD450; and B5, with 0.04 OD450.

The target in a further experiment is T1, human MSLN-R1-his protein. The experiment in a line: ELISA on coated MSLN-R1; antibody 1 nM.
On to B1, for which the OD450 is 0.05 OD450.
As to B2, the OD450 was 0.04 OD450.
The same measure, in the same setting: in the case of B3 it was 1.63 OD450; in that of B4, 1.82 OD450; in that of B5, 2.34 OD450.

A further experiment concerns the target T2, human MSLN-R3-his protein. Description: ELISA on coated MSLN-R3; antibody 0.1 nM.
The molecule B1 displayed an OD450 of 0.07 OD450.
Same read-out and setting: then B2, with 0.04 OD450.
B3 registered an OD450 of 0.04 OD450.
For B4, the OD450 was determined as 0.04 OD450.
On the same count and under the same terms, in the case of B5 it was 0.04 OD450.

A further experiment addresses T2, human MSLN-R3-his protein. The experiment in a line: ELISA on coated MSLN-R3; no antibody (blank).
In turn, B1 gave an OD450 of 0.05 OD450.
Molecule B2 showed an OD450 of 0.04 OD450.
B3: the OD450 stood at 0.04 OD450.
For the molecule B4, the OD450 stood at 0.05 OD450.
Same read-out and setting: in the case of B5 it was 0.04 OD450.

The next experiment has as its target T3, human MSLN-R2-his protein. Description: ELISA on coated MSLN-R2; antibody 1 nM.
Description: as §1
Regarding B1, the OD450 was found to be 0.05 OD450.
On the same count and under the same terms, in the case of B2 it was 0.04 OD450; in that of B3, 0.04 OD450; in that of B4, 0.05 OD450.
B5 had an OD450 of 0.08 OD450.

The target in another experiment is T1, human MSLN-R1-his protein. Description: ELISA on coated MSLN-R1; antibody 0.01 nM.
Description: as §1
B1 gave an OD450 of 0.04 OD450.
Consider B2, for which the OD450 came to 0.04 OD450.
Same read-out and setting: then B3, with 0.13 OD450.
Same read-out and setting: in the case of B4 it was 0.39 OD450; in that of B5, 0.78 OD450.

For a further experiment, the target named is T3, human MSLN-R2-his protein. Description: ELISA on coated MSLN-R2; antibody 0.001 nM.
Description: as §1
B1 gave an OD450 of 0.05 OD450.
Molecule B2 had an OD450 of 0.04 OD450.
On the same count and under the same terms, in the case of B3 it was 0.04 OD450; in that of B4, 0.04 OD450.
Same read-out and setting: then B5, with 0.05 OD450.

The target of the next experiment is T2, human MSLN-R3-his protein. The experiment in a line: ELISA on coated MSLN-R3; antibody 100 nM.
Description: as §1
Molecule B1 returned an OD450 of 0.06 OD450.
Same read-out and setting: in the case of B2 it was 0.07 OD450.
The same measure, in the same setting: then B3, with 0.06 OD450; and B4, with 0.09 OD450.
Same read-out and setting: then B5, with 0.1 OD450.

In a further experiment the target is T1, human MSLN-R1-his protein. Description: ELISA on coated MSLN-R1; antibody 0.1 nM.
The molecule B1 came in with an OD450 of 0.05 OD450.
For B2, the OD450 was found to be 0.04 OD450.
Same read-out and setting: then B3, with 0.64 OD450.
On the same count and under the same terms, then B4, with 1.46 OD450.
Still for that read-out and setting: in the case of B5 it was 1.72 OD450.

The next experiment has as its target T1, human MSLN-R1-his protein. The experiment in a line: ELISA on coated MSLN-R1; antibody 0.001 nM.
Description: as §1
The molecule B1 came in with an OD450 of 0.04 OD450.
Take B2: the OD450 worked out at 0.05 OD450.
B3 returned an OD450 of 0.07 OD450.
The same measure, in the same setting: in the case of B4 it was 0.1 OD450; in that of B5, 0.36 OD450.

The next experiment deals with T2, human MSLN-R3-his protein. Description: ELISA on coated MSLN-R3; antibody 10 nM.
Description: as §1
The molecule B1 displayed an OD450 of 0.05 OD450.
Same read-out and setting: then B2, with 0.05 OD450; and B3, with 0.05 OD450; and B4, with 0.05 OD450.
On to B5, for which the OD450 was found to be 0.05 OD450.

For the next experiment, the target named is T2, human MSLN-R3-his protein. Description: ELISA on coated MSLN-R3; antibody 0.01 nM.
Description: as §1
In turn, B1 came in with an OD450 of 0.04 OD450.
Same read-out and setting: in the case of B2 it was 0.07 OD450.
B3 showed an OD450 of 0.04 OD450.
Turning to B4, the OD450 worked out at 0.04 OD450.
On the same count and under the same terms, then B5, with 0.04 OD450.

The target in a further experiment is T1, human MSLN-R1-his protein. The experiment in a line: ELISA on coated MSLN-R1; antibody 100 nM.
Description: as §1
For the molecule B1, the OD450 was 0.35 OD450.
Same read-out and setting: in the case of B2 it was 0.05 OD450; in that of B3, 2.34 OD450; in that of B4, 2.13 OD450.
The same measure, in the same setting: in the case of B5 it was 2.55 OD450.

For another experiment, the target named is T3, human MSLN-R2-his protein. Description: ELISA on coated MSLN-R2; antibody 0.1 nM.
Description: as §1
In the case of B1, the OD450 is 0.04 OD450.
The same measure, in the same setting: in the case of B2 it was 0.04 OD450; in that of B3, 0.04 OD450; in that of B4, 0.04 OD450.
Still for that read-out and setting: in the case of B5 it was 0.05 OD450.

For a further experiment, the target named is T3, human MSLN-R2-his protein. The experiment in a line: ELISA on coated MSLN-R2; antibody 0.0001 nM.
Description: as §1
For the molecule B1, the OD450 was found to be 0.04 OD450.
The molecule B2 returned an OD450 of 0.04 OD450.
B3 displayed an OD450 of 0.04 OD450.
Same read-out and setting: then B4, with 0.05 OD450; and B5, with 0.04 OD450.

The target of another experiment is T1, human MSLN-R1-his protein. Description: ELISA on coated MSLN-R1; antibody 0.0001 nM.
Description: as §1
Turning to B1, the OD450 came to 0.04 OD450.
Still for that read-out and setting: in the case of B2 it was 0.04 OD450.
Consider B3, for which the OD450 was determined as 0.05 OD450.
On the same count and under the same terms, in the case of B4 it was 0.06 OD450.
On the same count and under the same terms, in the case of B5 it was 0.26 OD450.

The next experiment has as its target T2, human MSLN-R3-his protein. The experiment in a line: ELISA on coated MSLN-R3; antibody 1 nM.
Description: as §1
As to B1, the OD450 came to 0.04 OD450.
The molecule B2 yielded an OD450 of 0.04 OD450.
For B3, the OD450 came to 0.04 OD450.
B4: the OD450 turned out to be 0.04 OD450.
The same measure, in the same setting: then B5, with 0.04 OD450.
